Reference: patent US20250236642A1, “PHARMACEUTICAL COMPOSITION FOR TREATMENT OR PREVENTION OF ADULT T-CELL LEUKEMIA” (NEC Corporation, priority 2022, published 2025)
Like-named read-outs stand apart in the source and are kept apart here.

Tests used:
HLA-A*24:02 molecule [1] = experiment: flow cytometry, C1R-A24 cells
HLA-A*02:01 molecule [2] = experiment: flow cytometry, T2 cells
HLA-A*02:06 molecule [3] = experiment: flow cytometry, RA2.6 cells
HLA-A*24:02 molecule [4] = experiment: flow cytometry, C1R-A24 cells; remark: listed apart in the source
HLA-A*02:01 molecule [5] = experiment: flow cytometry, T2 cells; remark: listed apart in the source
HLA-A*02:06 molecule [6] = experiment: flow cytometry, RA2.6 cells; remark: listed apart in the source

Row | Binder | -log Kd value (HLA-A*02:06 molecule [3]) | also measured
1 | IALETPVWI (modifications not checked) [peptide of SEQ ID NO: 20] | – | -log Kd value (HLA-A*24:02 molecule [1]): -5.48; -log Kd value (HLA-A*02:01 molecule [2]): -5.11
2 | LHEEHGATL [peptide of SEQ ID NO: 79] | > -3 | –
3 | LIEEHGATL [peptide of SEQ ID NO: 40] | -4.81 | –
4 | YQLSPPITW (modifications not checked) [peptide of SEQ ID NO: 32] | – | -log Kd value (HLA-A*24:02 molecule [1]): -6.76; -log Kd value (HLA-A*24:02 molecule [4]): -5.76; -log Kd value (HLA-A*02:01 molecule [5]): -3.46; -log Kd value (HLA-A*02:01 molecule [2]): -3.46
5 | EAIDGYITL [peptide of SEQ ID NO: 47] | -4.72 | –
6 | LTITRKSFI [peptide of SEQ ID NO: 45] | -3.79 | –
7 | LVEEHGATL [peptide of SEQ ID NO: 43] | -4.86 | –
8 | LVITRKSFI [peptide of SEQ ID NO: 30] | -3.61 | –
9 | LIITRKSFI [peptide of SEQ ID NO: 29] | -3.64 | –
10 | IFADVSSST [peptide of SEQ ID NO: 78] | > -3 | –
11 | GTHLDAGTV [peptide of SEQ ID NO: 51] | -3.66 | –
12 | ALRPAPALL [peptide of SEQ ID NO: 26] | > -3.37 | –
13 | VMQIDGVQP [peptide of SEQ ID NO: 67] | -3.41 | –
14 | ALPKIRARV [peptide of SEQ ID NO: 12] | -4.78 | –
15 | ILSDHQQSQ [peptide of SEQ ID NO: 70] | > -3 | –
16 | CIDEHQWQL [peptide of SEQ ID NO: 28] | -5.25 | –
17 | VLLQQFQTA [peptide of SEQ ID NO: 15] | -5.47 | –
18 | MLPQTPSHL [peptide of SEQ ID NO: 24] | -3.96 | –
19 | ETLQFIDSM [peptide of SEQ ID NO: 53] | -3.37 | –
20 | ARHSTIPLV [peptide of SEQ ID NO: 77] | > -3 | –

Row | Binder | -log Kd value (HLA-A*02:06 molecule [3]) | also measured
21 | LLLFSAAAL [peptide of SEQ ID NO: 1] | -4.96 | –
22 | KFLEAFHEV [peptide of SEQ ID NO: 8] | -5.81 | –
23 | LLNPNRQTI [peptide of SEQ ID NO: 23] | -3.53 | –
24 | SLPNEKQTS [peptide of SEQ ID NO: 69] | > -3 | –
25 | YPGWHSTTI [peptide of SEQ ID NO: 52] | – | -log Kd value (HLA-A*24:02 molecule [1]; remark: other sources report otherwise): -5.66
26 | ALQFLIPRL (modifications not checked) [peptide of SEQ ID NO: 22] | – | -log Kd value (HLA-A*24:02 molecule [1]): -4.96; -log Kd value (HLA-A*02:01 molecule [2]): -5.9
27 | FSNDFGQSL [peptide of SEQ ID NO: 35] | -4.71 | –
28 | SPDEFSNDF [peptide of SEQ ID NO: 73] | > -3 | –
29 | GILSDHQQS [peptide of SEQ ID NO: 74] | > -3 | –
30 | YVYDPPTTI [peptide of SEQ ID NO: 2] | -5.55 | –
31 | LTEEHGATL [peptide of SEQ ID NO: 42] | -4.92 | –
32 | ISAYRTCWI [peptide of SEQ ID NO: 34] | -3.14 | –
33 | GSPDEFSND [peptide of SEQ ID NO: 72] | > -3 | –
34 | STGESAQTS [peptide of SEQ ID NO: 71] | > -3 | –
35 | LMITRKSFI [peptide of SEQ ID NO: 17] | -4.53 | –
36 | LLEEHGATL [peptide of SEQ ID NO: 41] | -5.3 | –
37 | ALPAPHLTL (modifications not checked) [peptide of SEQ ID NO: 18] | – | -log Kd value (HLA-A*24:02 molecule [1]): -6.73; -log Kd value (HLA-A*02:01 molecule [2]): -5.99
38 | LLITRKSFI [peptide of SEQ ID NO: 16] | -4.63 | –
39 | LMEEHGATL [peptide of SEQ ID NO: 13] | -5.68 | –
40 | CMIVHQGTI [peptide of SEQ ID NO: 36] | -4.37 | –

Row | Binder | -log Kd value (HLA-A*02:06 molecule [3]) | also measured
41 | AQISAYRTC [peptide of SEQ ID NO: 50] | -4.09 | –
42 | AQAPPTAQL [peptide of SEQ ID NO: 5] | -5.85 | –
43 | ASPSHMTSM [peptide of SEQ ID NO: 81] | > -3 | –
44 | CTDEHQWQL [peptide of SEQ ID NO: 39] | -6.8 | –
45 | ATLAPAVLL [peptide of SEQ ID NO: 10] | -6.12 | –
46 | LAITRKSFI [peptide of SEQ ID NO: 46] | -3.04 | –
47 | SLVLTWAAL [peptide of SEQ ID NO: 14] | -6.24 | –
48 | ALQPPCPNL (modifications not checked) [peptide of SEQ ID NO: 31] | – | -log Kd value (HLA-A*24:02 molecule [1]): -5.31; -log Kd value (HLA-A*02:01 molecule [2]): -5.13
49 | LAEEHGATL [peptide of SEQ ID NO: 61] | -4.5 | –
50 | YTYDPPTTI [peptide of SEQ ID NO: 3] | -6.17 | -log Kd value (HLA-A*02:06 molecule [6]): -5.17
51 | ATAPPTAQL [peptide of SEQ ID NO: 25] | -6.16 | –
52 | IQYSSFHNL (modifications not checked) [peptide of SEQ ID NO: 21] | – | -log Kd value (HLA-A*24:02 molecule [1]): -6.53; -log Kd value (HLA-A*02:01 molecule [2]): -5.29
53 | VMSHHGEKL [peptide of SEQ ID NO: 19] | -4.3 | –
54 | SSFEFFEEA [peptide of SEQ ID NO: 37] | -7.42 | –
55 | LPPARHSTI [peptide of SEQ ID NO: 76] | > -3 | –
56 | GYITLGKPH [peptide of SEQ ID NO: 80] | > -3 | –
57 | ALAPPTAQL [peptide of SEQ ID NO: 6] | -6.41 | –
58 | THLDAGTVE [peptide of SEQ ID NO: 75] | > -3 | –
59 | YFFTVIFSF [peptide of SEQ ID NO: 44] | > -4.4 | –
60 | YLYDPPTTI [peptide of SEQ ID NO: 4] | -5.87 | –
